# Laboratory results published in US10624964, “Methods and compositions for stimulating immune response using potent immunostimulatory RNA motifs” (The Trustees of the University of Pennsylvania).
# T1: RIG-I full length (UniProt O95786 O95786:1-925)
# T1 sequence: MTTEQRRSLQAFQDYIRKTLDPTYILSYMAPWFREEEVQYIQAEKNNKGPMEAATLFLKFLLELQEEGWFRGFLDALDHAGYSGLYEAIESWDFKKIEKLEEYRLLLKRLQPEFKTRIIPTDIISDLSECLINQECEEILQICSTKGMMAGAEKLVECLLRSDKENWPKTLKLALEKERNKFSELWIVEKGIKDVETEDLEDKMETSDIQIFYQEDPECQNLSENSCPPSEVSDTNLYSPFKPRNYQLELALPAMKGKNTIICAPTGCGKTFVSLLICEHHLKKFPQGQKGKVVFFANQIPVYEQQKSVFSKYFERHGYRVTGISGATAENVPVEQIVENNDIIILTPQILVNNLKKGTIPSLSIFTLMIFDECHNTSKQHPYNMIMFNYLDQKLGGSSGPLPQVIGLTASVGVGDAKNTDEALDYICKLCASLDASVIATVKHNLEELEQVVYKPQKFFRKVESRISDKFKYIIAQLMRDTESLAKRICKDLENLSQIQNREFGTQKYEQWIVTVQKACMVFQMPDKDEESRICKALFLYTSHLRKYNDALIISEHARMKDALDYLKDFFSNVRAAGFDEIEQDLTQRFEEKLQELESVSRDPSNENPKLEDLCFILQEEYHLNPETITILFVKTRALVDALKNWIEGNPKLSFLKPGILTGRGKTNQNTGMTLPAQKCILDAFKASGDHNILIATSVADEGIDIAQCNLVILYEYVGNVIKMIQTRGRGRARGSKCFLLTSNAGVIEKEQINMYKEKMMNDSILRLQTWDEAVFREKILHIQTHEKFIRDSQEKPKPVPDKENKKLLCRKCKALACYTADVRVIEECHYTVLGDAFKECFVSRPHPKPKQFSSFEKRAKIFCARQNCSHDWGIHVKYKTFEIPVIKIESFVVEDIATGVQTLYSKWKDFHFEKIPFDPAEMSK
# B1: DVG-268 ivtRNA (ssRNA)
# RNA: ACCAGACAAGAGUUUAAGAGAUAUGUAUCCUUUUAAAUUUUCUUGUCUUCUUGUAAGUUUUUCUUGCUAUUGUCAUAUGGAUAAGUCCAAGACUAUCUUUAUCUAUGUCCACAAGAUUGGUAACUGGGUCAUUCCCUGACCAGAAGUUUGAAGCAAGACUUCCCGGUACCUGGAAGUCUUGGACUUAUCCAUAUGACAAUAGUAAGAAAAACUUACAAGAAGACAAGAAAAUUUAAUAGGAUACAUAUCUCUUAAACUCUUGUCUGGU
# modifications: 5'-triphosphate (T7 transcript)
# Biological target: T1, RIG-I full length
# Test: EMSA; with ATP; 6 pmol RNA, 0-20 pmol RIG-I; affinity equivalent to poly U/UC
# Details: stem-loop motif 70-114, complementary 5' and 3' ends
binder,measurement,value
B1,binding result,binds
